According to the Human Domainome abundance scans (Beltran et al. 2025):
± gives the uncertainty stated by the source.

B1: Zinc finger homeobox protein 3, residues 2147 to 2202; numbered along this chain, Q15911 (parent)
chain: RPRTRITDDQLRVLRQYFDINNSPSEEQIKEMADKSGLPQKVIKHWFRNTLFKERQ

Variants of: B1
Test: abundance fitness (aPCA) (normalised: wild type 0, dead -1); higher = more abundant; growth selection in yeast, the domain comes from the species named
Conditions: Homo sapiens

Variant	abundance fitness
PPRTRITDDQLRVLRQYFDINNSPSEEQIKEMADKSGLPQKVIKHWFRNTLFKERQ	-0.165 ± 0.26
EPRTRITDDQLRVLRQYFDINNSPSEEQIKEMADKSGLPQKVIKHWFRNTLFKERQ	-0.832 ± 0.21
RPRTRITDDQLRVLRQYFDINNSPSEEQIKEMADKSGLPQKVIKHWFQNTLFKERQ	0.008 ± 0.12
RPRTRITDDQLRVLRQYFDINNSPSEEQIKEMADKSGLPQKVIKHWFNNTLFKERQ	0.102 ± 0.21
RPRTRITDDQLRVLRQYFDINNSPSEEQIKEMADKSGLPQKVIKHWFANTLFKERQ	-0.042 ± 0.091
RPRTRITDDQLRVLRQYFDINNSPSEEQIKGMADKSGLPQKVIKHWFRNTLFKERQ	-0.316 ± 0.074
RPRTRITDDQLRVLRQYFDINNSPSEEQIKKMADKSGLPQKVIKHWFRNTLFKERQ	-0.017 ± 0.16
RPRTRITDDQLRVLRQYFDINNSPSEEQIKPMADKSGLPQKVIKHWFRNTLFKERQ	-1.03 ± 0.15
RPRTRITDDQLRVLRQYFDINNSPSEEQIKRMADKSGLPQKVIKHWFRNTLFKERQ	-0.282 ± 0.076
RPRTRITDDQLRVLRQYFDINNQPSEEQIKEMADKSGLPQKVIKHWFRNTLFKERQ	0.004 ± 0.12
RPRTRITDDQLRVLRQYFDINNWPSEEQIKEMADKSGLPQKVIKHWFRNTLFKERQ	-0.243 ± 0.09
RPRTRITDDQLRVLRQYFDINNNPSEEQIKEMADKSGLPQKVIKHWFRNTLFKERQ	-0.14 ± 0.26
RPRTRITDDQLRVLRQYFDINNSPSEEQIKEMADKSGLPQQVIKHWFRNTLFKERQ	0.095 ± 0.15
RPRTRITDDQLRVLRQYFDINNSPSEEQIKEMADKSGLPQNVIKHWFRNTLFKERQ	-0.053 ± 0.16
RPRTRITDDQLRVLRQYFDINNSPSEEQIKEMADKSGLPQWVIKHWFRNTLFKERQ	-0.361 ± 0.12
RPRTRITDDQLRVLRQYFDINNSPSEEQIKEMADKSGLPPKVIKHWFRNTLFKERQ	0.121 ± 0.1
RPRTRITDDQLRVLRQYFDINNSPSEEQIKEMADKSGLPFKVIKHWFRNTLFKERQ	-0.172 ± 0.23
RPRTRITDDQLRVLRQYFDINNSPSEEQIKEMADKSGLPNKVIKHWFRNTLFKERQ	0.102 ± 0.31
RPRTRITWDQLRVLRQYFDINNSPSEEQIKEMADKSGLPQKVIKHWFRNTLFKERQ	-0.277 ± 0.079
RPRTRITCDQLRVLRQYFDINNSPSEEQIKEMADKSGLPQKVIKHWFRNTLFKERQ	0.054 ± 0.098
RPRTRITEDQLRVLRQYFDINNSPSEEQIKEMADKSGLPQKVIKHWFRNTLFKERQ	-0.012 ± 0.076
RPRTRITDDQLRVLRQYFDINNSPSEEQIKEMADKSGLPQKVIKHWFRNTLFWERQ	-0.299 ± 0.083
RPRTRITDDQLRVLRQYFDINNSPSEEQIKEMADKSGLPQKVIKHWFRNTLFFERQ	-0.195 ± 0.13
RPRTRITDDQLRVLRQYFDINNSPSEEQIKEMADKSGLPQKVIKHWFRNTLFAERQ	0.017 ± 0.083

Variant	abundance fitness
RPRTRITDDQLSVLRQYFDINNSPSEEQIKEMADKSGLPQKVIKHWFRNTLFKERQ	0.018 ± 0.071
RPRTRITDDQLRVLRQYFDINNSCSEEQIKEMADKSGLPQKVIKHWFRNTLFKERQ	-0.534 ± 0.098
RPRTRITDDQLRVLRQYFDINNSESEEQIKEMADKSGLPQKVIKHWFRNTLFKERQ	-0.673 ± 0.11
RPRTRITDDQLRVLRQYFDINNSYSEEQIKEMADKSGLPQKVIKHWFRNTLFKERQ	-0.519 ± 0.13
RPRTRITDDQLRVLRQYFDINNSPSEEQIKEMADKSGMPQKVIKHWFRNTLFKERQ	-0.302 ± 0.11
RPRTRITDDQLRVLRQYFDINNSPSEEQIKEMADKSGCPQKVIKHWFRNTLFKERQ	-0.143 ± 0.14
RPRTRITDDQLRVLRQYFDINNSPSEEQIKEMADKSGLPQKVIKHWFRNTLFKMRQ	-0.107 ± 0.17
RPRTRITDDQLRVLRQYFDINNSPSEEQIKEMADKSGLPQKVIKHWFRNTLFKCRQ	-0.149 ± 0.11
RPRTRITDDQLRVLRQYFDINNSPSEEQKKEMADKSGLPQKVIKHWFRNTLFKERQ	-0.634 ± 0.13
RPRTRITDDQLRVLRQYFDINNSPSEEQIKESADKSGLPQKVIKHWFRNTLFKERQ	-0.882 ± 0.12
RPRTRITDDQLRVLRQYFDWNNSPSEEQIKEMADKSGLPQKVIKHWFRNTLFKERQ	-0.184 ± 0.077
RPRTRITDDQLRVLRQYFDINNSPSEEQIKEMADKSGLPQKVFKHWFRNTLFKERQ	-0.864 ± 0.39
RPRTRITDDQLRFLRQYFDINNSPSEEQIKEMADKSGLPQKVIKHWFRNTLFKERQ	-0.012 ± 0.072
RPRTRITDDQLRVLRQYFDINNSPSELQIKEMADKSGLPQKVIKHWFRNTLFKERQ	-0.102 ± 0.072
RPRTRITDDQLRVLRQYFHINNSPSEEQIKEMADKSGLPQKVIKHWFRNTLFKERQ	-0.034 ± 0.097
RPRTRITDDQLRVLRQYFMINNSPSEEQIKEMADKSGLPQKVIKHWFRNTLFKERQ	0.044 ± 0.1
RPRTRITDDQLRVLRQYFDINNSPSEEQIKEMADKSGLPQKVIKHWFRNTLFKERS	-0.57 ± 0.28
RPRTRITDDQLRVLRQYFDINNSPSGEQIKEMADKSGLPQKVIKHWFRNTLFKERQ	-0.192 ± 0.066
RPRTRIEDDQLRVLRQYFDINNSPSEEQIKEMADKSGLPQKVIKHWFRNTLFKERQ	-0.133 ± 0.081
RPRTRITDDQLRVLRQYFDINNSPSEEQIKEMADKSGLPQKVIKHMFRNTLFKERQ	-0.429 ± 0.15
RPRTRITDDQLRVLRQYFDINNSPSEEQIKEMADKSGLPQKVIKHVFRNTLFKERQ	-0.177 ± 0.11
RPRTRITDDQLRVLRQYFDINNSPSEEQIKEMADKSGLPQKVIKHKFRNTLFKERQ	-0.738 ± 0.14
RPRTRITDDQLRVLRQYFDINNSPSEEQIKEMADKSGLPQKVIKHRFRNTLFKERQ	-0.812 ± 0.093
RPRTRHTDDQLRVLRQYFDINNSPSEEQIKEMADKSGLPQKVIKHWFRNTLFKERQ	-0.241 ± 0.14

Variant	abundance fitness
RPRTRFTDDQLRVLRQYFDINNSPSEEQIKEMADKSGLPQKVIKHWFRNTLFKERQ	-0.052 ± 0.12
RPRTRITDDQLRVLRQYFDINNSPSEEQIKEMADKSGLPQKVIKPWFRNTLFKERQ	-0.377 ± 0.11
RPRTRITDDQLRVLRQYFDINNSPSEEQIKEMADKSELPQKVIKHWFRNTLFKERQ	-0.155 ± 0.11
RPRTRITDDQLRVLRQYFDINNSPSEEQIKEMADKPGLPQKVIKHWFRNTLFKERQ	-0.853 ± 0.1
RPRTRITDDQLRVLRQYFDINNSPSEEQIKEMADKDGLPQKVIKHWFRNTLFKERQ	-0.669 ± 0.16
RPRTRITDDQLRVLRQYFDINNSPSEEQIKEMYDKSGLPQKVIKHWFRNTLFKERQ	-0.299 ± 0.25
RPRTRITDDQLRVLRQYFDITNSPSEEQIKEMADKSGLPQKVIKHWFRNTLFKERQ	0.152 ± 0.09
RPRTRITDDQLRVLRQYFDIQNSPSEEQIKEMADKSGLPQKVIKHWFRNTLFKERQ	-0.105 ± 0.1
RPRTRITDDQLRVLRQYFDIGNSPSEEQIKEMADKSGLPQKVIKHWFRNTLFKERQ	-0.153 ± 0.077
RPRTRITDDQLRVLRQYFDINPSPSEEQIKEMADKSGLPQKVIKHWFRNTLFKERQ	-0.035 ± 0.099
RPRTRITDDQLRVLRQYFDINNSPSEEQIKEMADKSGLEQKVIKHWFRNTLFKERQ	0.009 ± 0.082
RPRTRITDDQLRVLRQYFDINNSPSEEQIKEMADKSGLAQKVIKHWFRNTLFKERQ	-0.068 ± 0.078
RPRTRITDDQLRVLRQYFDINNSPSEEQIKEMADKSGLTQKVIKHWFRNTLFKERQ	-0.031 ± 0.099
RPRTRITDDQLRVLRQNFDINNSPSEEQIKEMADKSGLPQKVIKHWFRNTLFKERQ	-0.095 ± 0.12
RPRTRITDDQLRVLRQAFDINNSPSEEQIKEMADKSGLPQKVIKHWFRNTLFKERQ	-0.165 ± 0.077
RPRTRITDDQLRVLRQYFDINNSPSEEQIKEMADKSGLPQKVIKHWFRNTLFKEEQ	-0.173 ± 0.11
RPRTRITDDQLRVLRQYFDINNSPSEEQIKEMADKSGLPQKVIKHWFRNTLFKEPQ	-0.343 ± 0.13
RPRTRITDDQLRVLRQYFDINNSPSEEQIKEMADKSGLPQKVIDHWFRNTLFKERQ	-0.08 ± 0.16
RPRWRITDDQLRVLRQYFDINNSPSEEQIKEMADKSGLPQKVIKHWFRNTLFKERQ	-1.13 ± 0.16
RPRPRITDDQLRVLRQYFDINNSPSEEQIKEMADKSGLPQKVIKHWFRNTLFKERQ	-0.159 ± 0.13
RPRTRITDDQLRVLRDYFDINNSPSEEQIKEMADKSGLPQKVIKHWFRNTLFKERQ	-0.025 ± 0.15
RPRTRITDDQLRVLRPYFDINNSPSEEQIKEMADKSGLPQKVIKHWFRNTLFKERQ	-0.242 ± 0.1
RPRTRITDDQLRVLRRYFDINNSPSEEQIKEMADKSGLPQKVIKHWFRNTLFKERQ	0.001 ± 0.062
RPRTRITDDQLRVLRQYFDINNSPKEEQIKEMADKSGLPQKVIKHWFRNTLFKERQ	-0.045 ± 0.1

Variant	abundance fitness
RPRTRITDDQLRVLRQYFDINNSPREEQIKEMADKSGLPQKVIKHWFRNTLFKERQ	-0.202 ± 0.071
RPRTRITDDQLRVLRQYFDINNSPWEEQIKEMADKSGLPQKVIKHWFRNTLFKERQ	-0.901 ± 0.1
RPRTRITDDQLRVLRQYFDINNSPMEEQIKEMADKSGLPQKVIKHWFRNTLFKERQ	-0.523 ± 0.098
RPRTRITDDQLRVLRQYFDINNSPSEEQIKEMADKSGLPQKVIKHWNRNTLFKERQ	-0.526 ± 0.24
RPRTRITDDQIRVLRQYFDINNSPSEEQIKEMADKSGLPQKVIKHWFRNTLFKERQ	-0.126 ± 0.13
RPRTRITDDQERVLRQYFDINNSPSEEQIKEMADKSGLPQKVIKHWFRNTLFKERQ	0.142 ± 0.078
RPRTRITDDQSRVLRQYFDINNSPSEEQIKEMADKSGLPQKVIKHWFRNTLFKERQ	-0.161 ± 0.073
RPRTRITDDQNRVLRQYFDINNSPSEEQIKEMADKSGLPQKVIKHWFRNTLFKERQ	-0.019 ± 0.15
RPRTRITDDQLRVLRQYFDINNSPSEEKIKEMADKSGLPQKVIKHWFRNTLFKERQ	-0.327 ± 0.12
RPRTRITDDQLRVLRQYFDINNSPSEEHIKEMADKSGLPQKVIKHWFRNTLFKERQ	-0.058 ± 0.13
RPRTRITDDQLRVLRQYFDINNSPSEEQIKEMADKSGLPQKVIKHWFRNTFFKERQ	-0.214 ± 0.13
RPRTRITDDQLRVLSQYFDINNSPSEEQIKEMADKSGLPQKVIKHWFRNTLFKERQ	-0.067 ± 0.068
RPRTRITDDQLRVLFQYFDINNSPSEEQIKEMADKSGLPQKVIKHWFRNTLFKERQ	-0.152 ± 0.13
RPRTRITDDQLRVLRQYFDINNSPSEEQIMEMADKSGLPQKVIKHWFRNTLFKERQ	-0.107 ± 0.11
RPRTRITDDQLRVLRQYFDINNSPSEEQIWEMADKSGLPQKVIKHWFRNTLFKERQ	-0.537 ± 0.099
RPRTRITDDQLRVLRQYFDINNSPSEEQIIEMADKSGLPQKVIKHWFRNTLFKERQ	-0.133 ± 0.15
RPRTRITDDQLRVLRQYFDINNSPSEEQIKEMAPKSGLPQKVIKHWFRNTLFKERQ	-0.582 ± 0.11
RPRTRITDDQLRVLRQYFDINNSPSEEQIKEMANKSGLPQKVIKHWFRNTLFKERQ	0.082 ± 0.15
RPRTRITDDQLRVLRQYFDINNSPSEEQIKEMACKSGLPQKVIKHWFRNTLFKERQ	-0.039 ± 0.1
RPRTLITDDQLRVLRQYFDINNSPSEEQIKEMADKSGLPQKVIKHWFRNTLFKERQ	0.143 ± 0.07
RPRTIITDDQLRVLRQYFDINNSPSEEQIKEMADKSGLPQKVIKHWFRNTLFKERQ	0.148 ± 0.074
RPGTRITDDQLRVLRQYFDINNSPSEEQIKEMADKSGLPQKVIKHWFRNTLFKERQ	0.143 ± 0.066
